Holding throughout (assay type): cell-based, mouse
One test deals with TCF1. As to the kind of experiment: Th17 in vitro differentiation, TCF1 and RORγt expression by flow cytometry. Here is the method: (§1) Single-cell suspension were prepared from spleen and lymph nodes, and CD4 T cells isolated using the anti-CD4 microbeads (Miltenyi, catalogue #130-117-043). Subsequently, naïve CD4 T cells (CD62L^+ CD44^− CD25^−) were enriched through fluorescence activated cell sorting (FACS) performed on a BD FACSAria Ilu. Naïve CD4 T cells were activated for 3 days with 1 ug/ml of plate-bound anti-CD3 (BioXcell, BP0001) and anti-CD28 (BioXcell, BE0015), plus the addition of 20 ng/ml of IL-1B (R&D Systems), 25 ng/ml of IL-6 (R&D Systems), 20 ng/ml of IL-23 (R&D Systems), 20 ug/ml of anti-IFNγ (BioXcell, BE0055) and 20 μg/ml of anti-IL4 (BioXcell, BE0045) for pathogenic Th17; 2 ng/ml of TGFβ1, 25 ng/ml of IL-6, 20 μg/ml of anti-IFN and 20 μg/ml of anti-IL4 for non-pathogenic Th17. Cells were then rested in un-coated plates in absence of anti-CD3/anti-CD28 stimulation for 2 days. For some experiments, cells were re-stimulated with 1 ug/ml of anti-CD3/anti-CD28 for 1-2 days.
(§2) Single-cell suspensions were firstly stained to discriminate live cells with UV Zombie (Biolegend) in PBS, and then in FACS buffer (2% bovine serum albumin in PBS) with antibodies for surface antigens. […] Fully stained samples were read either at a BD LSRFortessa or BD FACSymphony. The data were analyzed with FlowJo software (TreeStar) and GraphPad Prism software (GraphPad).
(A flow cytometer gives signals particle by particle.)

The next test deals with Tcf7 locus. In words: Tcf7 locus reporter (Tcf7-GFP) activity in Th17 cells. The following applies: CD4 T cells of Tcf7 locus reporter strain, IL-1β+IL-6 with or without IL-23 for 3 days, then 2 days of rest (FIG. 8C). Here is the method: as §1, §2
A further test has as its system CD4+ T cells. In words: Glycolytic rate assay using Seahorse (ECAR). The conditions noted are these: WT cells differentiated with IL-1β+IL-6 with or without IL-23 (FIG. 12G). From the text: FIG. 12A-12K—TCF1 deficiency obviates the need for IL-23 for Th17 pathogenicity. (FIG. 12A) Schematic view of in vitro differentiation with IL-1b and IL-6 for adoptive transfer experiments. (FIG. 12B-12D) CNS-infiltrating immune cells (FIG. 12B-12C) or immune cells from draining lymph nodes (dLN) (FIG. 12D) were harvested from mice at peak of disease (EAE score 1-5) and analyzed by flow cytometry. (FIG. 12B) Summary data of the frequency of Foxp3+ cells within the 2D2 cell population infiltrating the CNS (WT n=11; KO n=12). (FIG. 12C) Summary data of cytokine production by host CD4+ T cells infiltrating the CNS (WT n=10; KO n=12). (FIG. 12D) Summary data of the frequency of SLAMF6+ and CXCR6+ cells within 2D2+ cells in the dLN of recipients of 2D2 TCF1 WT (n=8) and TCF1cKO (n=10) cells. […] (FIG. 12I-12J) CNS-infiltrating 2D2 cells were harvested and FACS-sorted from mice at peak of disease (EAE score 1-5) and analyzed by confocal microscopy. […]
Th17 pathogenicity is driven by IL-23 and has been associated with increased glycolytic activity and lipid metabolism, which in turn, supply crucial sterol ligands to boost RORγt transcriptional activity. […] The disclosure further assessed the intra-cellular lipid content of 2D2 TCF1 WT and 2D2 TCF1cKO cells isolated from the CNS of p19^−/− mice.

B1: IL-23: a cytokine critical for inducing pathogenic Th17 cells (protein, UniProt Q9NPF7 20-189; P29460 23-328, looked up)
Interleukin-23 subunit alpha: RAVPGGSSPAWTQCQQLSQKLCTLAWSAHPLVGHMDLREEGDEETTNDVPHIQCGDGCDPQGLRDNSQFCLQRIHQGLIFYEKLLGSDIFTGEPSLLPDSPVGQLHASLLGLSQLLQPEGHHWETQQIPSLSPSQPWQRLLLRFKILRSLQAFVAVAARVFAHGAATLSP
Interleukin-12 subunit beta: IWELKKDVYVVELDWYPDAPGEMVVLTCDTPEEDGITWTLDQSSEVLGSGKTLTIQVKEFGDAGQYTCHKGGEVLSHSLLLLHKKEDGIWSTDILKDQKEPKNKTFLRCEAKNYSGRFTCWWLTTISTDLTFSVKSSRGSSDPQGVTCGAATLSAERVRGDNKEYEYSVECQEDSACPAAEESLPIEVMVDAVHKLKYENYTSSFFIRDIIKPDPPKNLQLKPLKNSRQVEVSWEYPDTWSTPHSYFSLTFCVQVQGKSKREKKDRVFTDKTSATVICRKNASISVRAQDRYYSSSWSEWASVPCS
Regarding B1, the TCF1 protein expression entry in the test on TCF1 (naïve CD4+ T cells differentiated with IL-1β and IL-6 for 2 days, then increasing doses of IL-23, dose-dependent (FIG. 1F)) is on record as “decreased significantly”. In the test on TCF1 (pTh17 differentiated for 3 days, then fresh IL-23 added in the culture media (FIG. 8D)), the “proportion of TCF1lo RORγt hi cells” value was “increased proportion”. Moreover, in the test on Tcf7 locus, the “Tcf7 locus reporter activity” value is “significantly decreased”. Further, the “glycolysis (extracellular acidification rate; ECAR)” value in the test on CD4+ T cells is listed as “increased glycolysis”.
